From the supplement of paper PMC9170038

Test system: MS2 coat protein
Experiment: apparent KD of MS2 coat protein; designed switch direction (-1 OFF switch, 1 ON switch): -1; higher = weaker reporter binding
Method in brief: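 The buffer was Tris-HCl pH 7.5 with KCl, MgCl2, BSA, DTT, tRNA and Tween-20. In it, SNAP-549-labelled MS2 coat protein was titrated in doubling steps from 0.7 or 1.5 nM to 3 µM over chip-bound RNA switches transcribed by stalled E. coli RNA polymerase on Illumina chips. Apparent KD is the per-design median over clusters of curve fits to normalised fluorescence.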

[1] = Eterna round: R95, input ligand: FMN 200 uM
[2] = Eterna round: R95, input ligand: microRNA oligo, concentration not stated
[3] = Eterna round: R95, input ligand: none
[4] = input ligand: microRNA oligo, concentration not stated

Sequence | apparent KD of MS2 coat protein [1] [nM] | apparent KD of MS2 coat protein [2] [nM] | apparent KD of MS2 coat protein [3] [nM] | apparent KD of MS2 coat protein (input ligand: FMN 200 uM) [nM] | apparent KD of MS2 coat protein (input ligand: none) [nM] | apparent KD of MS2 coat protein [4] [nM]
GAUAGAGAGCAGGAUAUCUUGGAUAAGUAUAGUAGAGAAGGGCUCACAUGAGGAUCACCCAUGUGGUCCUAGAU [JL Dibiri mod 11] (puzzle: Exclusion 6) | 43.8 | 14.9 | 15 |  |  | 
GCAUGUCUUAAGGAUAUGCUAAGGCGUGAGCCGGCAGAAGGUAAGACAUGAGGAUCACCCAUGUUUUCCUAAAA [jl-ex6-4.32 ViennaUCT mod] (Eterna round: R97, puzzle: Exclusion 6) |  |  |  | 91.3 | 20.7 | 
GGUACUAACACGAAAGUGUUAGUACUAUAAGCUUGUGUUACAUGAGGAUCACCCAUGUCCUCAUAAGCUCGUCUUGU [JL-sv3-2.19 mat747 mod] (puzzle: Sensor v3, turn-off variant 2) | 45.4 | 44.2 | 44.9 |  |  | 
GGUGCGUAUGUGAGGAUAUGCUGGUCCUUGGAUCGGCAGAAGGUACAUGAGGAUCACCCAUGUGGUGUCGUUCC [salish99_Bmod_ex4_102] (puzzle: Brourd's mod of Exclusion 4) |  | 87 |  |  |  | 
UUUUAGAGAGGAUAUAUAUAGUGAAACAUGAGGAUCACCCAUGUAAUUAUAUGGAUGUAAAUAGAAGGCUCAUUUA [JL-ex5-3.02] (puzzle: Exclusion 5) | 35.7 | 31.1 | 30.7 |  |  | 
AAUUCACAUGAGGAUCACCCAUGUGAGGAUAUGGUUUCGCUGGCCGUAGCCAGUGGAACCAGAAGGCGCAUGAU [Mat - Exclusion 1 - JL Mod - D11] (Eterna round: R97, puzzle: Exclusion 1) |  |  |  | 30.7 | 28.9 | 
UUUUAACAUGAGGAUCACCCAUGUGAGGAUAUCGAAAUUUUUAUUAAUAUUAAUAAAACGAGAAGGCACAUUUU [JMF 12] (puzzle: Exclusion 1) |  | 58.3 |  |  |  | 
UAAAGUAUAUAGGAUAUCUAGCUGGAAACAGCUAGAGAAGGAUGUACAUGAGGAUCACCCAUGUAAAACCUCAA [Ex6/17-A1] (Eterna round: R97, puzzle: Exclusion 6) |  |  |  | 45.4 | 18.3 | 
GCUGCGCGAGGAUAUGCGGUUUGCGCUGUGGCCCGUGGCGUACAUGAGGAUCACCCAUGUAGAAGGCGUGCGGG [Apr-15 SS2-56] (puzzle: Exclusion 2) |  | 10.4 |  |  |  | 
CUUGUGUAAGGAUAUAUGAGUCACGGAAAUAAACCGUGAAGAUAGAAGGUACAUGAGGAUCACCCAUGUAAAAC [Mod of Anonveat 5 - Jieux - Exclusion 4] (Eterna round: R97, puzzle: Exclusion 4) |  |  |  | 224 | 35.2 | 
GCAGUUCGAGUUAGGAUAUGAUGUUAAUUCGGAUAUCAGAAGGAACUUGAGGAUCACCCAAGUAUAGAUGUUGC [JR_BMEx4_Sub060] (Eterna round: R97, puzzle: Brourd's mod of Exclusion 4) |  |  |  | 29.6 | 18.6 | 
GUCCGGCGUGUAGGAUAUGGUUCCGUUUCGGUUCCAGAAGGACAUGAGGAUCACCCAUGUGCCUGUCGUCGGUCGUCACCGGGC [salish99_ExNG1_r04_220] (Eterna round: R96, puzzle: Exclusion NG 1) |  |  |  | 19.5 | 14.8 | 10.3
GCAAGCUUGUCAAGAUCCCACAUGAGGAUCACCCAUGUGCAUCGUCUGAGCCCAUAGCUAGUCAUCUGCGGGUGCGU [Eternabot (Original) Solution 15] (Eterna round: R97, puzzle: Sensor, turn-off variant 1) |  |  |  | 40.3 | 44.7 | 
GCAGUGUGAGUUAGGAUAUGAUGAUUUUUUAUUGGUCAGAAGGAACUUGAGGAUCACCCAAGUUAGGAAUUGGU [JR_BMEx4_Sub075] (Eterna round: R97, puzzle: Brourd's mod of Exclusion 4) |  |  |  | 40.3 | 33.1 | 
GGUGCGUUUGUGAGGAUAUGCUGGUCCUUGGAUCAGCAGAAGGCACAUGAGGAUCACCCAUGUGGUGUCGGUCC [salish99_Bmod_Ex4_038] (puzzle: Brourd's mod of Exclusion 4) |  | 252 |  |  |  | 
CUGCUGGAGCGUCGCUUUGGUCGUACAUGAGGAUCACCCAUGUAGGAUAUGGUAAAAUUCGCCUGCUAGAAGGAUAGAGUGGUC [salish99_ExNG3_r04_618] (Eterna round: R96, puzzle: Exclusion NG 3) |  |  |  | 142 | 78.9 | 93.6
CCCACAGGCUUUUUGCUCGACAUGAGGAUCACCCAUGUUGAAUGGGUUGUGUGUGUGUGAUACAUAUAUAUGGUCCU [-25.5, -50.5 kcal, A 21%] (Eterna round: R97, puzzle: Sensor, turn-off variant 1) |  |  |  | 142 | 158 | 

Sequence | apparent KD of MS2 coat protein [1] [nM] | apparent KD of MS2 coat protein [2] [nM] | apparent KD of MS2 coat protein [3] [nM] | apparent KD of MS2 coat protein (input ligand: FMN 200 uM) [nM] | apparent KD of MS2 coat protein (input ligand: none) [nM] | apparent KD of MS2 coat protein [4] [nM]
AAAAAACAAGGAUAUACGAAGGAGGGUUAUCUUAAUUUUUGACAUGAGGAUCACCCAUGUAGAAGGUGUUAAAA [JR_Exclusion2_Sub011] (puzzle: Exclusion 2) | 571 | 202 | 156 |  |  | 
CUGAGCUGAGGAUAUACAUGAGGAUCACCCAUGUUAAGCAGCUUGCGUAAAAGCAGAUGUAGAAGGCAGUUCGG [Mod of JL 18 - Jieux - Exclusion 3] (Eterna round: R97, puzzle: Exclusion 3) |  |  |  | 18.1 | 13.7 | 
AUUAAACAUGUAGGAUAUGCGUGGCAAAGCUAUGCAGAAGGACAUGAGGAUCACCCAUGUAAAAGCGUCUGCGUACAGAUGCAA [Mat - Exclusion NG 1 - Mod of JL - D86] (Eterna round: R96, puzzle: Exclusion NG 1) |  |  |  | 314 | 41.3 | 30.7
GCAUCCAAAGUGAGGAUAUACCUCUGGAUACAGAGGUAGAAGGCACAUGAGGAUCACCCAUGUUACUAGGAUGC [Fiskers BMX 4 - 35] (puzzle: Brourd's mod of Exclusion 4) |  | 13.2 |  |  |  | 
UAAAACGUAGGAUAUGCGGAAAAUAACUUGAGGAUCACCCAAGUGUCCGAGAGGCUAAAUGCAGAAGGACGAGAUC [Edxedi] (Eterna round: R97, puzzle: Exclusion 5) |  |  |  | 179 | 105 | 
CGGUGCUGAGGAUAUACAUGAGGAUCACCCAUGUGUUCUAGCUAGCGUACUGGCAGAUGUAGAAGGCGGUACUG [JL-ex3-3.43 Brourd mod] (puzzle: Exclusion 3) |  | 17.1 |  |  |  | 
UAAGUUUACCGAGGAUAUGGUUUUUCCUUUUUACCAGAAGGCGGACUCAACAUGAGGAUCACCCAUGUAUAAAGGGUAUUUGGU [JR_ExcNG1_Sub045] (Eterna round: R96, puzzle: Exclusion NG 1) |  |  |  | 57.8 | 54 | 49.6
GUGCAAUGAGGAUAUACGUUGGUGGGCAUCUGUGUGCUCCUACAUGAGGAUCACCCAUGUAGAAGGCAUGUCAC [LRO-Excl2-19] (puzzle: Exclusion 2) |  | 11.7 |  |  |  | 
AGAAAUGCCCAUGGCCACAAGCUUUUCGCUUGUCUUACUACAUGAGGAUCACCCAUGUAACAUGGGCUCCUGAUAAU [Resoriraqu] (puzzle: Sensor v3, turn-off variant 2) | 12.5 | 11 | 12 |  |  | 
ACAAGUUUUUAGAUUCUUAACAUGAGGAUCACCCAUGUGCUCGUCUUGUUUGUACUAUCACCGCCGGUGAUAGUACA (Eterna round: R97, puzzle: Sensor, turn-off variant 1) |  |  |  | 65 | 81 | 
CUCUCGCGAGGAUAUGAUUUAAGUAACAUGAGGAUCACCCAUGUUUUUCCGUUGUUAUGUUCAGAAGGCGCGUGAU [JR_E5_Sub022] (puzzle: Exclusion 5) |  | 38.8 |  |  |  | 
CCCGGGUUUGUGAGGAUAUCGGGCCCGAAAGGGCCCGAGAAGGCACAUGAGGAUCACCCAUGUAAGGGCCCGGG [-42.9, -40.9 kcal, A 23%, 0-5cbis] (Eterna round: R97, puzzle: Brourd's mod of Exclusion 4) |  |  |  | 29.3 | 26.1 | 
UAUUAACAUGUAGGAUAUCUGCACGUUUAGUGCAGAGAAGGACAUGAGGAUCACCCAUGUAGAUCAUAAUAAUUUAAUUUAAUU [ENG1/6-D2] (Eterna round: R96, puzzle: Exclusion NG 1) |  |  |  | 541 | 117 | 141
ACAUGUAAUGCAGGAUAUCUGACACAUGAGGAUCACCCAUGUGACCAGAGGAAUUGCUAUGAGUCGGAGAAGGGUAUGUACAUG [Ex NG2 #54] (Eterna round: R96, puzzle: Exclusion NG 2) |  |  |  | 37.7 | 27.1 | 20.3
CUAAAUCAUGUAGGAUAUGCGUGGCGAAGCUAUGCAGAAGGACAUGAGGAUCACCCAUGUCAUUCCGUCUGCGUACAGACGGGA [Mat - Exclusion NG 1 - Mod of JL - D48] (Eterna round: R96, puzzle: Exclusion NG 1) |  |  |  | 133 | 28.6 | 21
UGAUCUAGCGGAGGAUAUACAUGAGGAUCACCCAUGUAAAUCGCUGAACCGUAGUUCAGCAUCAUGUAGAAGGCCGCUAGAUCU [MOD2 ENG2 3.62 by JL] (Eterna round: R96, puzzle: Exclusion NG 2) |  |  |  | 473 | 70.4 | 55.6
CUUUUGUGAGGAUAUCAGUAGUAAAAUAAUAAAUAUACUACUGAGAAGGCACAUGAGGAUCACCCAUGUUCCUC [Mat - Exclusion 4 - Mod of Salish - D74] (puzzle: Exclusion 4) |  | 35 |  |  |  | 
